Six molecules from patent US20260266848A1, “COMPOSITIONS AND METHODS FOR DIAGNOSING AND TREATING DYSTONIA” (Duke University, priority 2023, published 2026) can be followed below.

The chains are these.
B1: Psmd8 (protein, UniProt Q9CX56 1-353, looked up)
26S proteasome non-ATPase …: MFIKGRAAKTPRGEPRRSSRGGRKLAVVAPPPVLGSTSRPHFRRESIARRRCRKSGRRLAASRKMAATAATVNGSTTVSSSGPAATSVGILQAAAGMYEQLKDEWNRKNPNLSKCGEELGRLKLVLLELNFLPTTGTKLTKQQLILARDILEIGAQWSILCKDIPSFERYMAQLKCYYFDYKEQLPESAYMHQLLGLNLLFLLSQNRVAEFHTELERLPAKDIQTNVYIKHPVSLEQYLMEGSYNKVFLAKGNIPAESYTFFIDILLDTIRDEIAGCIEKAYEKILFAEATRILFFSTPKKMTDYAKKRGWVLGPNNYYSFASQQQKPEDSTIPSTELAKQVIEYARQLEMIV
B2: Cul5 (protein, UniProt Q9D5V5 1-780, looked up)
Cullin-5: MATSNLLKNKGSLQFEDKWDFMHPIVLKLLRQESVTKQQWFDLFSDVHAVCLWDDKGSSKIHQALKEDILEFIKQAQARVLSHQDDTALLKAYIVEWRKFFTQCDILPKPFCQLEVTLLGKQSSNKKSNMEDSIVRKLMLDTWNESIFSNIKNRLQDSAMKLVHAERLGEAFDSQLVIGVRESYVNLCSNPEDKLQIYRDNFEKAYLDSTERFYRTQAPSYLQQNGVQNYMKYADAKLKEEEKRALRYLETRRECNSVEALMECCVNALVTSFKETILAECQGMIKRNETEKLHLMFSLMDKVPNGIEPMLKDLEEHIISAGLADMVAAAETITTDSEKYVEQLLTLFNRFSKLVKEAFQDDPRFLTARDKAYKAVVNDATIFKLELPLKQKGVGLKTQPESKCPELLANYCDMLLRKTPLSKKLTSEEIEAKLKEVLLVLKYVQNKDVFMRYHKAHLTRRLILDISADSEIEENMVEWLREVGMPADYVNKLARMFQDIKVSEDLNQAFKEMHKNNKLALPADSVNIKILNAGAWSRSSEKVFVSLPTELEDLIPEVEEFYKKNHSGRKLHWHHLMSNGIITFKNEVGQYDLEVTTFQLAVLFAWNQRPREKISFENLKLATELPDAELRRTLWSLVAFPKLKRQVLLYDPQVNSPKDFTEGTLFSVNQDFSLIKNAKVQKRGKINLIGRLQLTTERMREEENEGIVQLRILRTQEAIIQIMKMRKKISNAQLQTELVEILKNMFLPQKKMIKEQMEWLIEHRYIRRDEADINTFIYMA
B3: Kpna4 (protein, UniProt O35343 2-521, looked up)
Importin subunit alpha-3: ADNEKLDNQRLKNFKNKGRDLETMRRQRNEVVVELRKNKRDEHLLKRRNVPQEDICEDSDIDGDYRVQNTSLEAIVQNASSDNQGIQLSAVQAARKLLSSDRNPPIDDLIKSGILPILVHCLERDDNPSLQFEAAWALTNIASGTSEQTQAVVQSNAVPLFLRLLHSPHQNVCEQAVWALGNIIGDGPQCRDYVISLGVVKPLLSFISPSIPITFLRNVTWVMVNLCRHKDPPPPMETIQEILPALCVLIHHTDVNILVDTVWALSYLTDAGNEQIQMVIDSGIVPHLVPLLSHQEVKVQTAALRAVGNIVTGTDEQTQVVLNCDALSHFPALLTHPKEKINKEAVWFLSNITAGNQQQVQAVIDANLVPMIIHLLDKGDFGTQKEAAWAISNLTISGRKDQVAYLIQQNVIPPFCNLLTVKDAQVVQVVLDGLSNILKMAEDQAETIANLIEECGGLEKIEQLQNHENEDIYKLAYEIIDQFFSSDDIDEDPSLVPESVQGGTFGFNSSTNVPTEGFQF
B4: Dctn2 (protein, UniProt Q99KJ8 2-402, looked up)
Dynactin subunit 2: ADPKYADLPGIARNEPDVYETSDLPEDDQAEFDAEELSSTSVEHIIVNPNAAYDKFKDKRVGTKGLDFSDRIGKTKRTGYESGDYEMLGEGLGVKETPQQKYQRLLHEVQELTTEVEKIKTTVKESATEEKLTPVVLAKQLAALKQQLVASHLEKLLGPDAAINLADPDGALAKRLLLQLEATKSSKGSSGGKATAGAPPDSSLVTYELHSRPEQDKFSQAAKVAELEKRLTELEATVRCDQDAQNPLSAGLQGACLMETVELLQAKVSALDLAVLDQVEARLQSVLGKVNEIAKHKASVEDADTQNKVHQLYETIQRWSPVASTLPELVQRLVTIKQLHEQAMQFGQLLTHLDTTQQMMASSLKDNTALLTQVQTTMRENLATVEGNFASIDARMKRLGK
B5: Ipo11 (protein, UniProt Q8K2V6 1-975, looked up)
Importin-11: MDLNSASSVVLQVLTQATSQDTAVLKPAEEQLKQWETQPGFYSVLLNIFTNHTLDINVRWLAVLYFKHGIDRYWRRVAPHALSEEEKSTLRAGLITNFNEPINQIATQIAVLIAKVARLDCPRQWPELIPTLVESVKVQDDLRQHRALLTFYHVTKTLASKRLAADRKLFYDLASGIYNFACSLWNHHTDTFLQHVSSGNEAAVLSSLERTLLSLKVLRKLTVNGFVEPHKNMEVMGFLHGIFERLKQFLECSRSIGTDNVCRDRLEKTIILFTKVLLDFLDQHPISFTPLIQRSLEFSVSYVFTEVGEGVTFERFIVQCMNLIKMIVKNYAYKPSKNFEDSSPETLEAHKIKMAFFTYPTLTEICRRLVSHYFLLTEEELTMWEEDPEGFTVEETGGDSWKYSLRPCTEVLFIDIFHEYNQTLTPVLLEMMQTLEGPTNVEDMNALLIKDAVYNAVGLAAFELFDSVDFDQWFKTQLLPELQVSHNRYKPLRRRVIWLIGQWISVKFKSDLRPMLYEAICNLLQDQDLVVRIETATTLKLTVDDFEFRTDQFLPYLETMFTLLFQLLQQVTECDTKMHVLHVLSCVIERVNVQIRPYVGCLVQYLPLLWKQSEEHNMLRCAILTTLIHLVQGLGADSKNLYPFLLPVIQLSTDVSQPPHVYLLEDGLELWLVTLENSPCVTPELLRIFQNMSPLLELSSENLRTCFKIINGYIFLSSTEFLQTYAAGLCQSFYELLPEITTEGQVQVLKVVENALKVNPVLGPQMFQRILPCVFRGVIEGERYPVVMSIYLAVMGRVLLQNTSFFSSLLNEMGHEFNQEMDQLLGNVIEMWVDRMDNITQPERKKLSALALLSLLPSDNSVIQDKFCGIINISVEALHDVMTEDPETRTYKDCMLMSQHEEPKVTEDEEPPTEQDKRKKMLALKDPVHTVSLQQFIYEKLKAQQEILGEQGFQSLMETVDTEIVTQLQEFLQGF
B6: Sec23a (protein, UniProt Q01405 2-765, looked up)
Protein transport protein …: TTYLEFIQQNEERDGVRFSWNVWPSSRLEATRMVVPVAALFTPLKERPDLPPIQYEPVLCSRTTCRAVLNPLCQVDYRAKLWACNFCYQRNQFPPTYAGISELNQPAELLPQFSSIEYVVLRGPQMPLIFLYVVDTCIEDEDLQALKESMQMSLSLLPPTALVGLITFGRMVQVHELGCEGISKSYVFRGTKDLSAKQLQEMLGLSKVPVTQATRGPQVQQPPPSNRFLQPVQKIDMNLTDLLGELQRDPWPVPQGKRPLRSSGVALSIAVGLLECTFPNTGARIMMFIGGPATQGPGMVVGDELKTPIRSWHDIEKDNAKYVKKGTKHFEALANRAATTGHVIDIYACALDQTGLLEMKCCPNLTGGYMVMGDSFNTSLFKQTFQRVFTKDIHGQFKMGFGGTLEIKTSREIKISGAIGPCVSLNSKGPCVSENEIGTGGTCQWKICGLSPTTTLAIYFEVVNQHNAPIPQGGRGAVQFVTQYQHSSGQRRIRVTTIARNWADAQTQIQNIAASFDQEAAAILMARLAIYRAETEEGPDVLRWLDRQLIRLCQKFGEYHKDDPNSFRFSETFSLYPQFMFHLRRSPFLQVFNNSPDESSYYRHHFMRQDLTQSLIMIQPILYAYSFSGPPEPVLLDSSSILADRILLMDTFFQILIYHGETIAQWRKSGYQDMPEYENFRHLLQAPVDDAQEILHSRFPMPRYIDTEHGGSQARFLLSKVNPSQTHNNMYAWGQESGAPILTDDVSLQVFMDHLKKLAVSSAA

One test concerns DYT-TOR1A MEF EVs. The test can be described thus: Quantitative LC-MS/MS proteomics of EVs from drug-treated DYT-TOR1A MEF cultures (ritonavir, salubrinal). The format is cell-based, mouse. Also noted: key to RTV Corrective Direction / RTV Corrective Direction, Grwd1 / RTV Corrective Direction, Srrm2 / RTV Corrective Direction, Rbm17 / RTV Corrective Direction, Dcaf8 / RTV Corrective Direction, Edil3 / RTV Corrective Direction, Timp3 / RTV Corrective Direction, Heatr3 / RTV Corrective Direction, Brd4 / RTV Corrective Direction, P3h4 / RTV Corrective Direction, Pacsin3 / RTV Corrective Direction, Naa50 / RTV Corrective Direction, Lpar6 / RTV Corrective Direction, Ndrg1 / RTV Corrective Direction, Kntc1 / RTV Corrective Direction, Cdk11b / RTV Corrective Direction, Sumo1 / RTV Corrective Direction, Lsm4 / RTV Corrective Direction, Hmga2 / RTV Corrective Direction, Cstf1 / RTV Corrective Direction, Tes / RTV Corrective Direction, Sbno1 / RTV Corrective Direction, Unc119b / RTV Corrective Direction, Cfdp1 / RTV Corrective Direction, Sec61b: YES = protein abundance effect opposite to DYT/WT. Conditions: EV protein abundance, DYT + RTV (ritonavir) vs DYT, direction compared with DYT/WT.
Turning to B1, the “RTV Corrective Direction” value is reported as “YES”.
Same read-out and setting: as for B2, the entry is “YES”; as for B3, “YES”; as for B4, “YES”.
Still for that read-out and setting: as for B5, the entry is “YES”; as for B6, “YES”.

The test is the same for the next values; noted with them: EV protein abundance, ritonavir (RTV)-treated DYT vs DYT.
Take B1: the “DYT + RTV/DYT Cohen's d” value worked out at 23.45.
Same read-out and setting: as for B2, the figure is 13.04; as for B3, 2.38.
On the same count and under the same terms, as for B4, the figure is 5.51.
Turning to B5, the “DYT + RTV/DYT Cohen's d” value stood at 9.75.
Consider B6, for which the “DYT + RTV/DYT Cohen's d” value stood at 8.14.

The subject of a further test is WT MEF EVs. The test can be described thus: Quantitative LC-MS/MS proteomics of EVs from ISRIB-treated WT MEF cultures. The format is cell-based, mouse. Also noted: key to ISRIB and DYT Parallel Direction / ISRIB and DYT Parallel Direction, Ctdsp1 / ISRIB and DYT Parallel Direction, Pcdh19 / ISRIB and DYT Parallel Direction, Tspan7 / ISRIB and DYT Parallel Direction, Myo1e / ISRIB and DYT Parallel Direction, Plpp3 / ISRIB and DYT Parallel Direction, Sh3bp4 / ISRIB and DYT Parallel Direction, Dnajc7 / ISRIB and DYT Parallel Direction, Drg1 / ISRIB and DYT Parallel Direction, Maea: YES = protein abundance effect similar to DYT/WT. Conditions: EV protein abundance, ISRIB-treated WT vs WT.
For the molecule B1, the “WT + ISRIB/WT Cohen's d” value is given as −3.31.
Still for that read-out and setting: as for B2, the figure is −3.39; as for B3, −3.18.
The same measure, in the same setting: as for B4, the figure is −0.53; as for B5, −1.97; as for B6, −0.95.

The test is the same for the next values; noted with them: EV protein abundance, WT + ISRIB vs WT, direction compared with DYT/WT.
Consider B1, for which the “ISRIB and DYT Parallel Direction” value is reported as “YES”.
As for B2, the “ISRIB and DYT Parallel Direction” value is given as “YES”.
On to B3, for which the “ISRIB and DYT Parallel Direction” value is “YES”.
On the same count and under the same terms, as for B4, the entry is “YES”; as for B5, “YES”; as for B6, “YES”.
